# Measurements as given in the nanobody polyreactivity screen of Harvey et al. (2022).
# Assay: yeast display, Sf9 membrane polyspecificity reagent, FACS + sequencing; frameworks hold sequencing errors
# Method in brief: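 A synthetic nanobody library was expressed on Saccharomyces cerevisiae BJ5465 by galactose induction for 36–48 hours. The library was stained for 1 hour at 4 °C with 10% biotinylated, detergent-solubilized Sf9 membrane reagent and enriched with streptavidin microbeads before FACS. Low and high (top ~1%) gates were set on anti-HA fluorescence for expression and streptavidin fluorescence for reagent binding, and each polyreactivity label reflects the gate of origin.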
row,Sequence,polyreactivity (PSR sort gate)
1,QVQLVESGGGLVQAGGSLRLSCAASGSIFQWYAMGWYRQAPGQERELFAAITWSGDTTYYADSVKGRFTISRDNAKNTVYLQMNRLKPEDTAVYYCAADTQDRTYYGWRQVGGYDYWGQGTQVTVSS,low polyreactivity
2,QVQLVESGGGLVQAGGSLRLSCAASGSIFQYTMGWYRQAPGKERELVAAITRSGSSTYYADSVKGRFTISRDNAKNTVYLQMNSLKPEDTAVYSCAHTIRRVLGYGSWGQGTQVTVSS,high polyreactivity
3,QVQLVESGGGLVQAGGSLRLSCAASGSIFQYYGMGWYRQAPGKERELVAAISRGGSTNYADSVKGRFTISRDNAKNTVYLQMNSLKPEDTAVYYCNARTYRKAYSGYNYWGQGTQVTVSS,high polyreactivity
4,QVQLVESGGGLVQAGGSLRLSCAASGSIFQYYVMGWYRQAPGKERELVAAISQSGGRTYYADSVKGRFTISRDNAKNTFYLQMNSLKPEDTAVYYCAAYSRNAEYDYWGQGTQVTVSS,high polyreactivity
5,QVQLVESGGGLVQAGGSLRLSCAASGSIFQYYVMGWYRQAQGKERELVAAISRGGGSTYYADSLKGRFTISRDNAKNTVYLQMNSMKPEDTAVYYCAKRTTRLAPYDYWGQGTQVTVSS,high polyreactivity
6,QVQLVESGGGLVQAGGSLRLSCAASGSIFRENAMGWYRQAPGKERELVAAITDGGDRTYYADSVKGRFTISRDNAKNTVYLQMNSLKPEDTAVYYCAARWLYWPRYNSLVYTHRDSWGQGTQVTVSS,low polyreactivity
7,QVQLVESGGGLVQAGGSLRLSCAASGSIFRFNAMGWYRQAPGKERELVAAITSRTYYADSVKGRFTISRDNAKNTVYLQMNSLKPEDTAVYYCAARVQSKYGYWGQGTQVTVSS,high polyreactivity
8,QVQLVESGGGLVQAGGSLRLSCAASGSIFRFYPLGWYRQSPGKERELVAGITWSGASTYYADSVKGRFTISRDNAKNTVYLQMNSLKPEDTAVYYCAKLYRLDGFYYWGQGTQVTVSS,high polyreactivity
9,QVQLVESGGGLVQAGGSLRLSCAASGSIFRGNAMGWYRQAPGKERELVAAISWSGASTYYADSVKGRFTISRDNAKNTVYLQMNSLKPEDTAVYYCAAVQWTGYPFDYWGQGTQVTVSS,high polyreactivity
10,QVQLVESGGGLVQAGGSLRLSCAASGSIFRGNAMGWYRQAPGKERELVAAITSRGTSTYYADSVKGRFTISRDNAKNTVYLQMNSLKREDTAVYYCAARGYYLYWGQGTQVTVSS,high polyreactivity
11,QVQLVESGGGLVQAGGSLRLSCAASGSIFRGNAMGWYRQAPGKERELVAGINRAGSTKYADSVKGRFTISRDNAKNTVYLQMNSLKPEDTAVYYCAAVRYERGLWSDYWGQGTQVSVSS,high polyreactivity
12,QVQLVESGGGLVQAGGSLRLSCAASGSIFRGNAMGWYRQAPGKERELVATITNGGSTNYADSVKGRFTISRDNAKNTVYLQMNSLKPEDTAVYYCNADHSYHIASTRHVDYWGQGTQVTVSS,low polyreactivity
13,QVQLVESGGGLVQAGGSLRLSCAASGSIFRGYAMGWYRQAPGKERELVAAITSRGGSTYYADSVKGRFTISRDNAKNTVYLQMNSLKPEDTAVYYCNKRVYYPWGQGTQVTVSS,high polyreactivity
14,QVQLVESGGGLVQAGGSLRLSCAASGSIFRGYAMGWYRQAPGKERELVAAITSSAGSTYYADSVKGRFTISRDNAKNTVYLQMNSLKPEDTAVYYCNKYPRASRRGFDYWGQGTQVTVSS,high polyreactivity
15,QVQLVESGGGLVQAGGSLRLSCAASGSIFRINAMGWYRPARGKERELVAATTKYADSVKGRFTISRDNAKNTVYLQMHSLKPEDTAVYYCAAAPIGGSSHPYDYWGQGTQVTVTS,low polyreactivity
16,QVQLVESGGGLVQAGGSLRLSCAASGSIFRIYAMGWYRHAPGKERELVAAITGRGGSTYYADSVKGRFTISRDNEKNTVYLQMNSLKPEDTAVYYCAAEERYAYRYDYWGQGTQVTVSS,high polyreactivity
17,QVQLVESGGGLVQAGGSLRLSCAASGSIFRIYAMGWYRQAPGKERELVAAISWTGGSTYYADSVKGRFTISRDNAKNTFFLQMNSLKPEDTAVYYCAARPRYKFSAYEYWGQGTQVTVSS,high polyreactivity
18,QVQLVESGGGLVQAGGSLRLSCAASGSIFRIYAMGWYRQSPGKERELVAAISFSTGSRTYYADSVKGRFTISRDNAKNTVYLQMNSLKPEDTAVYYCNAESYYDYNYWGQGTQVTVSS,low polyreactivity
19,QVQLVESGGGLVQAGGSLRLSCAASGSIFRKNAMGWYRQAPGKERELVAAISSSGGRTYYADSVKGRFTISRDNAKNTVYLQMNSLKPEDTAVYYCAAVYSKGGSSRISPGDDYWGQGTQVTVSS,high polyreactivity
20,QVQLVESGGGLVQAGGSLRLSCAASGSIFRKNVMGWSRPAPGKERELVAAITASGGRTYYADSVKGRFTISRDNAKNTVYLQMNSLKPEDTAVYYCAARRYYPYISSGPYYYWGQGTQVTVSS,high polyreactivity
21,QVQLVESGGGLVQAGGSLRLSCAASGSIFRKYAMGWYRQAPGKDRELVAAISKRGGSTYYADSVKGRFTISRDNAKNTVYLQMNSLKPEDTAVYYSNALRRYVSVRPTKSDYWGQGTQVTVSS,high polyreactivity
22,QVQLVESGGGLVQAGGSLRLSCAASGSIFRKYAMGWYRQAPGKERELVAVITTDGSTNYADSVKGLFTISRDNAKNTVYLQMNSLKPEDTAVYYCNAVRSSIGTDNDYWGQGTQVTVSS,low polyreactivity

row,Sequence,polyreactivity (PSR sort gate)
1,QVQLVESGGGLVQAGGSLRLSCAASGSIFRKYTMGWYRQAPGKERELVAAISRIGGSTYYADSVKGRFTISRDNAKNTVYLQMNSLKPEDTAVYYCAKRGPRSYFQPWYDYWGQGTQVTVSS,high polyreactivity
2,QVQLVESGGGLVQAGGSLRLSCAASGSIFRLNVMGWYRQAPGKERELVAVITGSGTRTNYADSVKGRFTISRDNAKNTVYLQMNSLKPEDTAVYYCNRVTTPTVTYGYGKMDYWGHGTQVTVSS,high polyreactivity
3,QVQLVESGGGLVQAGGSLRLSCAASGSIFRLYAMGWYRQAPGKERELVAAITRGDSTNYADSVKGRFTISRDNAKNTVYLQMNSLKPEDTAVYYCAVTGRLYAHPQGYDYWGQGTQVTVSS,low polyreactivity
4,QVQLVESGGGLVQAGGSLRLSCAASGSIFRNNAMGWYRQAPGKERELVASISSSGDSTYADSVKGRFTISRDNAKNTVYLQMNSLKPEDTAVYYCARDYLSPYAVDYWGQGTQVTVSS,low polyreactivity
5,QVQLVESGGGLVQAGGSLRLSCAASGSIFRNNAMGWYRQAPGKERELVAVISRRSGNTYYADSVKGRFTISRDNAKNTVYLQMNSLKPEDTAVYYCAADYSKSSIRGDYWGQGTQVTVSS,low polyreactivity
6,QVQLVESGGGLVQAGGSLRLSCAASGSIFRNYAMGWYRQAPGKERELVAAISYRGGSTYYADSVKGRFTISRDNAKNTVYLQMNSLKPEDTAVYYCAARTRKAYYYWGQGTQVTVSS,high polyreactivity
7,QVQLVESGGGLVQAGGSLRLSCAASGSIFRNYAMGWYRQAPGKERELVATIRYRGGRTYADSVKGRFTISRDNAKNTVYLQMNRLKPEDTAFYYCNTYARYAYLTGRMDYWGQGTQVTVSS,high polyreactivity
8,QVQLVESGGGLVQAGGSLRLSCAASGSIFRPNAMGWYRQAPGKERELVAAITWSGDSTYYADSVKGRFTISRDNAKNTVYLQMNSLKPEDTAVYYCAKYSLVFYISLYGYWGQGTQVTVSS,low polyreactivity
9,QVQLVESGGGLVQAGGSLRLSCAASGSIFRPYAMGWYRQAPGKEMELVAAISSSGGSTYYADSVKGRFTISRDNAKNTVYLQMNSLKPEDTAVYYCAAESRSTWIHSRDYWGQGTQVTVSS,low polyreactivity
10,QVQLVESGGGLVQAGGSLRLSCAASGSIFRPYAMGWYRQAPGKERELVAAISSSSGRTYYADSVKGRFTISRDNAKNTVYLQMNSLKPEDTAVYYCAADRYSFRGDYYWGQGTQVTVSS,low polyreactivity
11,QVQLVESGGGLVQAGGSLRLSCAASGSIFRPYAMGWYRQAPGKERELVAAISYRGGSTYYADSVKGRFTISRDNAKNTVYLQMNSLKPEDTAVYYCAADSREEGDYWGQGTQVTVSS,low polyreactivity
12,QVQLVESGGGLVQAGGSLRLSCAASGSIFRPYTMGWYRQAPGKERELVATISSTGITNYADSVKGRFTISRDNAKNTVYLQMNSLKPEDTAVYYCAARGRYVTPQPSYDYWGQGTQVTVSS,high polyreactivity
13,QVQLVESGGGLVQAGGSLRLSCAASGSIFRQNAMGWYRQAPGKERELVAAISWSGVRTYYADSVKGRFTISRDNAKNTVYLQMNSLKPEDTAVYYCATRYTHVYYGRISSSPKFDSWGQGTQVTVSS,low polyreactivity
14,QVQLVESGGGLVQAGGSLRLSCAASGSIFRRNAMGWYRQAPGKEREFVAAITWNGGSTYYADSEKGRFTNSRDNAKNPVYLQRNSLKPEDTAVYYCAARAFYYAGDWYGYWGQGTQVTVSS,high polyreactivity
15,QVQLVESGGGLVQAGGSLRLSCAASGSIFRRNAMGWYRQAPGKERELVAAIRSGGGTNYADSVKGRFTISRDNAKNTVYLQMNSLKPEDTAVYYCAAVYERYYLFEYDYWGQGTQVTVSS,low polyreactivity
16,QVQLVESGGGLVQAGGSLRLSCAASGSIFRRNPMGWYRQAPGKESELVAAISSSGGSTYYADSVKGGFTISRDIAKNTFYLQMNSVKPEDTAVYYCAARFGPQYRFDYWGQGTQVTVSS,high polyreactivity
17,QVQLVESGGGLVQAGGSLRLSCAASGSIFRRNTMGWYRQAPGKERELVAAISTRGGSTYYADSVKGRFTISRDNAKNTVYLQMNSLKPEDTAVYYCNTRGYYIVHRGYDYWGQGTQVTVSS,high polyreactivity
18,QVQLVESGGGLVQAGGSLRLSCAASGSIFRRYAMGWYRQAPGKEREFVAAITRSGGGTYYADSVKGRFTISRDNAKNTVYLQMNSLKPEDSAVYYCAKDVFVQRSRYPEGDYWGQGTQVTVSS,high polyreactivity
19,QVQLVESGGGLVQAGGSLRLSCAASGSIFRRYAMGWYRQAPGKEREFVAAITRSGGGTYYADSVKGRFTISRDNAKNTVYLQMNSLKPEDTAVYYCAKDVFVQRSRYPEGDYWGQGTQVTVSS,high polyreactivity
20,QVQLVESGGGLVQAGGSLRLSCAASGSIFRRYAMGWYRQAPGKERELVAAISGSAGSTYYADSVKGRFTISRDNAKNTVYLQMNSLKPEDTAVYYCKTDRSRSPGDVESASDIKRDYWGQGTQVTVSS,low polyreactivity
21,QVQLVESGGGLVQAGGSLRLSCAASGSIFRRYAMGWYRQAPGKERELVAAISWRGDSTYYADSVKGRFTISRDNAKNTVYLQMNSLIPEDTAVYYCAADYYRAGRYWGQRHGYDYWGQGTQVTVSS,low polyreactivity
